The numbers were not newly measured in paper PMC13598549, which cites them from elsewhere.

This series concerns the target TEAD (Homo sapiens) (UniProt P28347).
Chain of UniProt P28347 (P28347 whole entry): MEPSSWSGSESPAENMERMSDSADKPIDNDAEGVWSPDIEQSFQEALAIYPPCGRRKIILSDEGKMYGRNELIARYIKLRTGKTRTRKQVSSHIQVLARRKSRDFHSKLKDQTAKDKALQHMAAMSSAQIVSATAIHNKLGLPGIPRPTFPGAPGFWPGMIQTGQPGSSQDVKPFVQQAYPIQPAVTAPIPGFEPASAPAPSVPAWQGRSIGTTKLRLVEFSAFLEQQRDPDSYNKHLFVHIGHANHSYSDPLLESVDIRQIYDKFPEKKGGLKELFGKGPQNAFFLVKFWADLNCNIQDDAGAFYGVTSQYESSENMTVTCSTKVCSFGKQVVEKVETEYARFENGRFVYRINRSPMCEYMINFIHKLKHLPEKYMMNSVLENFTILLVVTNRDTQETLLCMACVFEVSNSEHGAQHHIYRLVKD

In the case of YAP (from UniProt P46937), the Kd was 40 nM.

By Kd is commonly meant the free concentration of one partner at which half of the binding sites on the other are occupied at equilibrium, for simple one-to-one binding.
